Assay results taken from patent US20180194851A1 (Pfizer, published 2018).
One block for each binder: values may come before it.

How the values were obtained:
[1] = target: T1, human 4-1BB on cells (human, UniProt Q07011 18-255); assay: FACS on HEK293T cells expressing human 4-1BB, IgG1
T1 construct: Expressed on stably transfected HEK293/HEK293T cells, transduced 300-19 cells or PHA stimulated human PBMC; also called h41BB; hu4-1BB

[2] = target: T2, Recombinant human 4-1BB/Fc Chimera (R&D Systems #838-4B) (human, UniProt Q07011 24-186); assay: ligand competition ELISA, 4-1BB_IgG1Fc to plate-bound 4-1BBL (competitor 4-1BBL)
T2 construct: Bought protein; also called Human 4-1BB IgG1Fc chimera; not shown: Factor Xa-cleavable junction, human IgG1 Fc and 6xHistidine tag of the bought chimera

[3] = target: T3, OX-40 on 300.19 cells (UniProt P43489 29-277, limits assumed); assay: FACS on 300.19 cells expressing OX-40
T3 construct: whole, on cells; also called CD134; TNFRSF4
T3 sequence (looked up): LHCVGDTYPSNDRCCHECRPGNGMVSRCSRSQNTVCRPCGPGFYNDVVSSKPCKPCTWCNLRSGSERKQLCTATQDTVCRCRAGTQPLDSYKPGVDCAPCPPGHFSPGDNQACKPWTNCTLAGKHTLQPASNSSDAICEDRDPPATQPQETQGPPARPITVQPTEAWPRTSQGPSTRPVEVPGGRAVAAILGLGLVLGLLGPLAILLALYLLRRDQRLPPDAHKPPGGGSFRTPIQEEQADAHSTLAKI

[4] = target: T4, Hu41BB N&E.1 (human, UniProt Q07011 18-255); assay: FACS, 100 nM antibody, transduced 300-19 cell pools
T4 construct: Human-to-dog mutant of the human 4-1BB extracellular domain, expressed on transduced 300-19 cells
T4 chain: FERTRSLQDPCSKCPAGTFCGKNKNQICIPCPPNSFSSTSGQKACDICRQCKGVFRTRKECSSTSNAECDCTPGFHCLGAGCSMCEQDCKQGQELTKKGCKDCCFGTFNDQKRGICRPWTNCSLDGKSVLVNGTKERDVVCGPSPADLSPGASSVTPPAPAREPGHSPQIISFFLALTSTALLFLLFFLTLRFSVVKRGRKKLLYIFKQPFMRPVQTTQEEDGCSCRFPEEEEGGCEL

[5] = target: T5, Hu41BB N&E.6 (human, UniProt Q07011 18-255); assay: as above
T5 construct: Human-to-dog mutant of the human 4-1BB extracellular domain, expressed on transduced 300-19 cells
T5 chain: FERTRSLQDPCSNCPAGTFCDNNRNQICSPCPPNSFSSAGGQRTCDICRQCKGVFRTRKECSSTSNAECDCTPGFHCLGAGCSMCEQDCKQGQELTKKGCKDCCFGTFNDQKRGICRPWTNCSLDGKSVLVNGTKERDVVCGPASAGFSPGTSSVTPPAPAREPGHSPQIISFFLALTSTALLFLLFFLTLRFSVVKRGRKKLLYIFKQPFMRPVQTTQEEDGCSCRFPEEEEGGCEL

[6] = target: T6, Hu41BB N&E (human, UniProt Q07011 18-255); assay: as above
T6 construct: Human-to-dog mutant of the human 4-1BB extracellular domain, expressed on transduced 300-19 cells
T6 chain: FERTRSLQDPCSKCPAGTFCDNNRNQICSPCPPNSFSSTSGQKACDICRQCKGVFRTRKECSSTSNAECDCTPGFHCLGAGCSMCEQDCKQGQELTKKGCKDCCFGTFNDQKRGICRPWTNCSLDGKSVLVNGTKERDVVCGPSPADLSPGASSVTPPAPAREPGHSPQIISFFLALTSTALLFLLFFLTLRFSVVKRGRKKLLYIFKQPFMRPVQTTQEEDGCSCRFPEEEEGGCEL

[7] = target: T7, Hu41BB N&E.5 (human, UniProt Q07011 18-255); assay: as above
T7 construct: Human-to-dog mutant of the human 4-1BB extracellular domain, expressed on transduced 300-19 cells; also called 4-1BB Mutant N&E.5
T7 chain: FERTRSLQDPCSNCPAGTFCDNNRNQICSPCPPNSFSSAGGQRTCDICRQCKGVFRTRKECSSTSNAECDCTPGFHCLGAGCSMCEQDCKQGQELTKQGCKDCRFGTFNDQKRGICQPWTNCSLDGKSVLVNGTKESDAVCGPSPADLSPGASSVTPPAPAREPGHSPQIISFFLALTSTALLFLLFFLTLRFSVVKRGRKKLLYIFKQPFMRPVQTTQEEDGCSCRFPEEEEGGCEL

[8] = target: T2, Recombinant human 4-1BB/Fc Chimera (R&D …); assay: ELISA on directly coated human 4-1BB/Fc, IgG1
[9] = target: T8, CD40 on 300.19 cells (UniProt P25942 21-277, limits assumed); assay: FACS on 300.19 cells expressing CD40
T8 construct: whole, on cells; also called TNFRSF5; 300.19 CD40
T8 sequence (P25942 21-277 limits assumed): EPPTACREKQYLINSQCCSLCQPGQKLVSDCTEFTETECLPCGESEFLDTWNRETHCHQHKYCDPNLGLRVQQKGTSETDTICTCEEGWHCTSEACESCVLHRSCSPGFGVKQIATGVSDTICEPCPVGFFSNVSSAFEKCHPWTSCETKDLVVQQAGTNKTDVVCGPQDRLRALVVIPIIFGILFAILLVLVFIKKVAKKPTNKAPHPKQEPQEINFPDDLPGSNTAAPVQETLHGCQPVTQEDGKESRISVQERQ

[10] = target: T2, Recombinant human 4-1BB/Fc Chimera (R&D …); assay: ELISA on coated human 4-1BB IgG1Fc chimera
[11] = target: T1, human 4-1BB on cells; assay: FACS on transfected cells
[12] = target: T1, human 4-1BB on cells; assay: FACS on HEK293 cells expressing human 4-1BB
[13] = target: T9, human 4-1BB (recombinant antigen, construct not stated) (human, UniProt Q07011 24-186); assay: SPR (Biacore 3000), Fab analyte on amine-coupled human 4-1BB
T9 construct: It may be the 4-1BB/Fc chimera; also called CD137/HUMAN 4-1BB; unlabeled human 4-1BB

[14] = target: T2, Recombinant human 4-1BB/Fc Chimera (R&D …); assay: ELISA on directly coated human 4-1BB/Fc
[15] = target: T10, Hu41BB N&E.3 (human, UniProt Q07011 18-255); assay: FACS, 100 nM antibody, transduced 300-19 cell pools
T10 construct: Human-to-dog mutant of the human 4-1BB extracellular domain, expressed on transduced 300-19 cells
T10 chain: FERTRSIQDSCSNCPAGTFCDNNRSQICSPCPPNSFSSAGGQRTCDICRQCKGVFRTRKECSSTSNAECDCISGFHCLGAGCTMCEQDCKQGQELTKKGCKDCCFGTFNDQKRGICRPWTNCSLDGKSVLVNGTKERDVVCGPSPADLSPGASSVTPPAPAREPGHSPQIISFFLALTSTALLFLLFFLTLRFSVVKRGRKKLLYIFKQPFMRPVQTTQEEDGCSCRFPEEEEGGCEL

[16] = target: T11, Hu41BB N&E.4 (human, UniProt Q07011 18-255); assay: as above
T11 construct: Human-to-dog mutant of the human 4-1BB extracellular domain, expressed on transduced 300-19 cells
T11 chain: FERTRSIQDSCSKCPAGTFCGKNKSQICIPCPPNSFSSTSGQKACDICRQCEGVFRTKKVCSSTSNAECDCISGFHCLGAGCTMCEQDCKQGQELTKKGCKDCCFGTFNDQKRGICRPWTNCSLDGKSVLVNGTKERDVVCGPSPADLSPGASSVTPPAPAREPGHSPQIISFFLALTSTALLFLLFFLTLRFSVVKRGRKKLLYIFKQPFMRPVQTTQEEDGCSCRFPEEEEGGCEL

[17] = target: T12, human 4-1BB extracellular portion, amino acids 24-186 (Fc cleaved off with Factor Xa) (human, UniProt Q07011 24-186); assay: SPR (Biacore 3000), antibody amine-coupled, 4-1BB 24-186 as analyte, 25 C
T12 construct: Made from the R&D Systems 4-1BB/Fc chimera by Factor Xa cleavage; also called recombinant human 4-1BB; the 4-1BB

EC50 [1]: 0.8 nM
% max inhibition [2]: 100%
IC50 [2]: 0.172 nM
binding result [3]: no binding (tested: 1000 nM)
binding result [4]: binds
binding result [5]: binds
binding result [6]: binds
binding result [7]: binds
EC50 [8]: 0.3 nM
binding result [9]: no binding (tested: 1000 nM)
EC50 [10]: 0.091 nM
fold selectivity for 4-1BB versus OX-40 and CD40 [11]: ≥ 100 fold
B1: MOR-7361 (IgG1) (antibody, V domains shown)
VH: QVQLVESGGGLVQPGGSLRLSCAASGFTFSDYYMHWVRQAPGKGLEWVSVISGSGSNTYYADSVKGRFTISRDNSKNTLYLQMNSLRAEDTAVYYCARLYAQFEGDFWGQGTLVTVSS
VL: DIELTQPPSVSVAPGQTARISCSGDNIGSKYVSWYQQKPGQAPVLVIYSDSERPSGIPERFSGSNSGNTATLTISGTQAEDEADYYCQSWDGSISRVFGGGTKLTVL
notes: Human IgG1 format, lambda light chain; also called 7361_G1

EC50 [12]: 105 nM
Kd [13]: 118 nM
EC50 [14]: 0.6 nM
B2: Fab-7361 (Fab, V domains shown)
VH: QVQLVESGGGLVQPGGSLRLSCAASGFTFSDYYMHWVRQAPGKGLEWVSVISGSGSNTYYADSVKGRFTISRDNSKNTLYLQMNSLRAEDTAVYYCARLYAQFEGDFWGQGTLVTVSS
VL: DIELTQPPSVSVAPGQTARISCSGDNIGSKYVSWYQQKPGQAPVLVIYSDSERPSGIPERFSGSNSGNTATLTISGTQAEDEADYYCQSWDGSISRVFGGGTKLTVL

binding result [3]: no binding (tested: 1000 nM)
binding result [15]: binds
binding result [16]: binds
binding result [9]: no binding (tested: 1000 nM)
B3: MOR-7483 (IgG1) (antibody, V domains shown)
VH: QVQLVQSGAEVKKPGESLKISCKGSGYSFSTYWISWVRQMPGKGLEWMGKIYPGDSYTNYSPSFQGQVTISADKSISTAYLQWSSLKASDTAMYYCARGYGIFDYWGQGTLVTVSS
VL: DIELTQPPSVSVAPGQTARISCSGDNIGDQYAHWYQQKPGQAPVVVIYQDKNRPSGIPERFSGSNSGNTATLTISGTQAEDEADYYCSTYTFVGFTTVFGGGTKLTVL
notes: Human IgG1 format, lambda light chain; also called 7483_G1

binding result [15]: binds
binding result [16]: binds
B4: MOR-7480.2 (IgG1) (antibody, V domains shown)
VH: EVQLVQSGAEVKKPGESLRISCKGSGYSFSTYWISWVRQMPGKGLEWMGKIYPGDSYTNYSPSFQGQVTISADKSISTAYLQWSSLKASDTAMYYCARGYGIFDYWGQGTLVTVSS
VL: SYELTQPPSVSVSPGQTASITCSGDNIGDQYAHWYQQKPGQSPVVVIYQDKNRPSGIPERFSGSNSGNTATLTISGTQAMDEADYYCATYTGFGSLAVFGGGTKLTVL
notes: Human IgG1 format

% max inhibition [2]: 98%
IC50 [2]: 0.125 nM
EC50 [10]: 0.122 nM
Kd [17]: 0.57 nM
koff [17]: 0.00023 s⁻¹
kon [17]: 450000 M⁻¹ s⁻¹
t1/2 [17]: 50 min
B5: MOR-7480 (IgG2) (antibody, V domains shown)
VH: QVQLVQSGAEVKKPGESLKISCKGSGYSFSTYWISWVRQMPGKGLEWMGKIYPGDSYTNYSPSFQGQVTISADKSISTAYLQWSSLKASDTAMYYCARGYGIFDYWGQGTLVTVSS
VL: DIELTQPPSVSVAPGQTARISCSGDNIGDQYAHWYQQKPGQAPVVVIYQDKNRPSGIPERFSGSNSGNTATLTISGTQAEDEADYYCATYTGFGSLAVFGGGTKLTVLG

binding result [15]: binds
binding result [16]: binds
B6: MOR-7483 (IgG2) (antibody, V domains shown)
VH: QVQLVQSGAEVKKPGESLKISCKGSGYSFSTYWISWVRQMPGKGLEWMGKIYPGDSYTNYSPSFQGQVTISADKSISTAYLQWSSLKASDTAMYYCARGYGIFDYWGQGTLVTVSS
VL: DIELTQPPSVSVAPGQTARISCSGDNIGDQYAHWYQQKPGQAPVVVIYQDKNRPSGIPERFSGSNSGNTATLTISGTQAEDEADYYCSTYTFVGFTTVFGGGTKLTVLG
notes: also called 7483_G2

Kd [17]: 28 nM
koff [17]: 0.022 s⁻¹
kon [17]: 800000 M⁻¹ s⁻¹
B7: MOR-7483.1 (IgG1) (antibody, V domains shown)
VH: EVQLVQSGAEVKKPGESLRISCKGSGYSFSTYWISWVRQMPGKGLEWMGKIYPGDSYTNYSPSFQGQVTISADKSISTAYLQWSSLKASDTAMYYCARGYGIFDYWGQGTLVTVSS
VL: SYELTQPPSVSVSPGQTASITCSGDNIGDQYAHWYQQKPGQSPVLVIYQDKNRPSGIPERFSGSNSGNTATLTISGTQAMDEADYYCSTYTFVGFTTVFGGGTKLTVL
notes: Germlined version of MOR-7483, human IgG1 format

binding result [3]: no binding (tested: 1000 nM)
binding result [15]: binds
binding result [9]: no binding (tested: 1000 nM)
B8: MOR-6032 (IgG1) (antibody, V domains shown)
VH: QVQLVQSGAEVKKPGSSVKVSCKASGGTFNSYAISWVRQAPGQGLEWMGGIIPGFGTANYAQKFQGRVTITADESTSTAYMELSSLRSEDTAVYYCARKNEEDGGFDHWGQGTLVTVSS
VL: DIELTQPPSVSVAPGQTARISCSGDNLGDYYASWYQQKPGQAPVLVIYDDSNRPSGIPERFSGSNSGNTATLTISGTQAEDEADYYCQTWDGTLHFVFGGGTKLTVL
notes: Human IgG1 format, lambda light chain; also called 6032_G1
